The text below walks through data of article doi:10.1101/2024.10.13.617916.

In the assay the target is KaiB labeled with 6-iodoacetamidofluorescein (KaiB-6IAF) (Synechococcus elongatus) (UniProt Q79PF5). Kind of assay: other fluorescence titration.
UniProt Q79PF5, sequence (Q79PF5 whole entry): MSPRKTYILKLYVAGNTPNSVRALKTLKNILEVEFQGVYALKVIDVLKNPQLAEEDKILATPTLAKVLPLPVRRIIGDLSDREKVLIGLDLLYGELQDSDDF

B1: KaiC (natural protein)
chain: MTSAEMTSPNNNSEHQAIAKMRTMIEGFDDISHGGLPIGRSTLVSGTSGTGKTLFSIQFLYNGIIEFDEPGVFVTFEETPQDIIKNARSFGWDLAKLVDEGKLFILDASPDPEGQEVVGGFDLSALIERINYAIQKYRARRVSIDSVTSVFQQYDASSVVRRELFRLVARLKQIGATTVMTTERIEEYGPIARYGVEEFVSDNVVILRNVLEGERRRRTLEILKLRGTSHMKGEYPFTITDHGINIFPLGAMRLTQRSSNVRVSSGVVRLDEMCGGGFFKDSIILATGATGTGKTLLVSRFVENACANKERAILFAYEESRAQLLRNAYSWGMDFEEMERQNLLKIVCAYPESAGLEDHLQIIKSEINDFKPARIAIDSLSALARGVSNNAFRQFVIGVTGYAKQEEITGLFTNTSDQFMGAHSITDSHISTITDTIILLQYVEIRGEMSRAINVFKMRGSWHDKAIREFMISDKGPDIKDSFRNFERIISGSPTRITVDEKSELSRIVRGVQEKGPES
B1 displayed a decrease of KaiB-6IAF fluorescence intensity at 3.5 uM KaiC of 60% and a maximal quenching of KaiB-6IAF of 40%.
